The results in this text go back to patent US20240285784A1, “PEPTIDIC CONJUGATES OF SN38 USEFUL IN THE TREATMENT OF CANCER” (FUNDACIÓ INSTITUT DE RECERCA BIOMÈDICA (IRB BARCELONA), priority 2020, published 2024).

Data set [1] in a line: Stability in mouse plasma at 37° C. in vitro. The data set is classed as in vitro ADME. Here is the method: To assess the stability of the SN38-linker A-MiniAp4 (Ia) (example 7) in human, mouse, dog and rat plasma at 37° C., the compound was prepared at 200 μM in plasma samples in triplicates at each timepoint (0 h, 1 h, 4 h, 8 h and 24 h) for each species. Once the incubation was finalised, plasma proteins were immediately precipitated by adding chilly methanol (ratio 4:1, methanol:plasma) and tubes were shacked for few seconds (vortex). Samples were centrifuged at 3,000 rpm for 30 minutes at 4° C., supernatants were collected, transferred to the injection plate and injected to LC-MS system.
Compound recovery was determined by comparing the analyte response in a biological sample that is spiked with the analyte and processed, with the response in a methanol sample that is spiked with the analyte and processed.
Plasma stability assay was performed using blank plasma from untreated volunteers/animals. K2-EDTA was used as anticoagulant. Human blank plasma used was obtained from Hospital Sant Pau, mouse blank plasma used was obtained from Janvier, dog blank plasma used was obtained from Isoquimen and rat blank plasma used were obtained from Draconis Pharma.

The nature of data set [2]: Stability in human serum at 37° C. in vitro. The data set is classed as in vitro ADME. The conditions noted are these: 200 μM in HBSS, 90% human serum. As for the experimental part:
Regarding to the stability in human serum of the SN38-linker A-MiniAp4 (Ia) (example 7), it was incubated at a concentration of 200 μM in buffer HBSS at 37° C. in the presence of 90% human serum. At a range of times, 100 μL aliquots were collected to which 400 μL cold methanol was added in order to precipitate the serum proteins. The samples were centrifuged at 3000 rpm at 4° C. during 30 min, filtered and analyzed by UPLC-PDA and UPLC-MS to determine the degree of degradation of SN38-Linker A-MiniAp4 (Ia).

For the next data set, the system named is athymic nude mice. Put plainly: In vivo tolerability, repeated intravenous injections (mouse weight). The note with it: 30 mg/kg i.v., 9 doses (days 1, 3, 5, 8, 10, 12, 29, 31, 33), weight until day 40. Here is the method: Upon the establishment of the MTD of SN38-linker A-MiniAp4 (Ia) at single i.v, we compared mean weight of mice treated with irinotecan at a clinically relevant multi-dose regimen, and SN38-linker A-MiniAp4 (Ia)at an equimolar dose. Briefly, mice were treated with either irinotecan 10 mg/kg (15 doses, on days 1-5, 8-12 and 29-33), by the intraperitoneal (i.p.) route, or with a SN38-linker A-MiniAp4 (Ia) 30 mg/kg (9 doses, on days 1, 3, 5, 8, 10, 12, 29, 31, 33), intravenously (i.v.). This regimen was considered the maximum feasible number of i.v. injections in mice. Control mice were treated with saline i.p. on days 1-5, 8-12 and 29-33.
Mouse weight was measured until day 40 and mean and SD values are represented for each group in FIG. 19. […] Weight of SN38-linker A-MiniAp4 (Ia) (Ia) treated mice was similar to that of mice treated with clinically relevant dosages of irinotecan.

The structures appear in SMILES notation. *1 amine or outer side, *2 acyl side, *3 side chain or, on linkers, in order; H or OH if unused. Where a SMILES comes first, the peptide text is derived from it. Bridges are numbered along the chain shown (N, C = ends). [ ]: non-standard residue; d: D form. The star is where a group is joined. X1 = CCc1c2c(nc3ccc(O)cc13)-c1cc3c(c(=O)n1C2)COC(=O)[C@@]3(CC)OC(=O)CCCCn1cc(CCCC(=O)NCCCOCCOCCOCCCN*)nn1; Suc = O=C(CCC(=O)[*:2])[*:1]; Dap = NC[C@H](N)C(=O)O

By half-life is commonly meant the time needed for the level to fall by half in the phase considered. The low end stands for rapid decline, the high end for slow decline. As to `CCc1c2c(nc3ccc(O)cc13)-c1cc3c(c(=O)n1C2)COC(=O)[C@@]3(CC)OC(=O)CCCCn1cc(CCCC(=O)NCCCOCCOCCOCCCNC(=O)CCC(=O)N[C@H]2CNC(=O)C[C@@H](C(N)=O)NC(=O)[C@H](CC(C)C)NC(=O)[C@H](C)NC(=O)[C@H]([C@@H](C)O)NC(=O)[C@H](CCC(=O)O)NC(=O)[C@@H]3CCCN3C(=O)[C@H](C)NC(=O)[C@H](CCCCN)NC2=O)nn1` [SN38-linker A-MiniAp4 (Ia)] ({X1-Suc}-[Dap]KAPETALD-NH2; lactam 1-9), the figures for the half-life at 200 μM in data set [1] and in data set [2] were 8 to 24 h and greater than 24 h, respectively. In addition, the recovery at 24 h, 200 μM in data set [1] (24 h, read-out: % Recovery after 24 h in mouse plasma) stood at 57.1%. For the same compound, in data set [2] (24 h), the “degree of degradation in human serum” value is given as “No significant degradation”. The “mouse weight versus controls” value in the data set on athymic nude mice was “did not lose significant weight”.
